Changes are numbered by the printed parent chain. One block for each binder: values may come before it.
How the values were obtained:
IFN-α1 = target: T1, IFN-α1 (human, UniProt A0A087WWS6 25-190); test: ProteOn
T1 construct: also called Ala114 IFN-αD

IFN-αC [1] = target: T2, IFN-αC (human, UniProt P01566 24-189); test: ProteOn
T2 construct: also called IFN-α10

IFN-α4a [2] = target: T3, IFN-α4a (human, UniProt P05014 24-189); test: ProteOn
T3 construct: also called IFN-αM1

IFN-αF [3] = target: T4, IFN-αF (human, UniProt P01568 24-189); test: ProteOn
T4 construct: also called IFN-α21
T4 chain: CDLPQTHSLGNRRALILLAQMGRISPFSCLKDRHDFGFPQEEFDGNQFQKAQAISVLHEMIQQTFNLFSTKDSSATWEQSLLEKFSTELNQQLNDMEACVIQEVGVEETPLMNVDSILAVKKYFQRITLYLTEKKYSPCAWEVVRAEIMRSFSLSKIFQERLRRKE

IFN-β = IFN-β (human, UniProt P01574 22-187); test: ProteOn
IFN-αD = target: T5, IFN-αD (human, UniProt A0A087WWS6 25-190); test: ProteOn
T5 construct: also called Val114 IFN-α1
T5 chain: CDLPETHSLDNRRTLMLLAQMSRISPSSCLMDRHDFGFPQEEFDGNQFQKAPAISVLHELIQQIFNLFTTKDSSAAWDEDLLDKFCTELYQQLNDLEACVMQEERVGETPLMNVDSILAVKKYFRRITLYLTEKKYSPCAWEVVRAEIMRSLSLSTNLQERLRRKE

IFN-αG [4] = target: T6, IFN-αG (human, UniProt P01569 24-189); test: ProteOn
T6 construct: also called IFN-α5

IFN-αJ1 [5] = target: T7, IFN-αJ1 (human, UniProt P01567 24-189); test: ProteOn
T7 construct: also called IFN-α7

IFN-αK [6] = target: T8, IFN-αK (human, UniProt P05013 24-189); test: ProteOn
T8 construct: also called IFN-α6

IFN-αH2 [7] = target: T9, IFN-αH2 (human, UniProt P01570 24-189); test: ProteOn
T9 construct: also called IFN-α14

Chimp IFN-ω = target: T10, Chimp IFN-ω (chimpanzee, UniProt P05000 24-195 (human entry)); test: ProteOn
T10 construct: also called chimpanzee IFN-ω

IFN-αWA [8] = target: T11, IFN-αWA (human, UniProt P05015 24-189); test: ProteOn
T11 construct: also called IFN-α16

Cyno IFN-ω = target: T12, Cyno IFN-ω (cynomolgus, UniProt P05000 24-195 (human entry)); test: ProteOn
T12 construct: also called cynomolgus IFN-ω
T12 chain: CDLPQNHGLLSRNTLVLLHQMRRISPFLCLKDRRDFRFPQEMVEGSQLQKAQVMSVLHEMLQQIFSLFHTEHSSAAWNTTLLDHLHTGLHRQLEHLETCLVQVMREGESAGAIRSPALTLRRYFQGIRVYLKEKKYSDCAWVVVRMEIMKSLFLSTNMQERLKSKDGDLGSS

IFN-αC [9] = target: T2, IFN-αC; test: cell-based or functional assay
IFN-α4a [10] = target: T3, IFN-α4a; test: cell-based or functional assay
IFN-αF [11] = target: T4, IFN-αF; test: cell-based or functional assay
human IFN-ω [12] = target: T13, human IFN-ω (human, UniProt P05000 24-195); test: cell-based or functional assay
IFN-αG [13] = target: T6, IFN-αG; test: cell-based or functional assay
IFN-αJ1 [14] = target: T7, IFN-αJ1; test: cell-based or functional assay
IFN-αK [15] = target: T8, IFN-αK; test: cell-based or functional assay
IFN-αH2 [16] = target: T9, IFN-αH2; test: cell-based or functional assay
IFN-αWA [17] = target: T11, IFN-αWA; test: cell-based or functional assay
[18] = target: T14, Human IFN-ω T80E variant with a C-terminal 6xHis-Tag (human, UniProt P05000 24-195); test: complex purified by size exclusion and crystallized
IFN-αC [19] = target: T2, IFN-αC; test: cell-based or functional assay; remark: listed apart in the source
IFN-α4a [20] = target: T3, IFN-α4a; test: cell-based or functional assay; remark: listed apart in the source
IFN-αF [21] = target: T4, IFN-αF; test: cell-based or functional assay
human IFN-ω [22] = target: T13, human IFN-ω; test: cell-based or functional assay; remark: listed apart in the source
IFN-αG [23] = target: T6, IFN-αG; test: cell-based or functional assay; remark: listed apart in the source
IFN-αJ1 [24] = target: T7, IFN-αJ1; test: cell-based or functional assay; remark: listed apart in the source
IFN-αK [25] = target: T8, IFN-αK; test: cell-based or functional assay; remark: listed apart in the source
IFN-αH2 [26] = target: T9, IFN-αH2; test: cell-based or functional assay; remark: listed apart in the source
IFN-αWA [27] = target: T11, IFN-αWA; test: cell-based or functional assay; remark: listed apart in the source
IFN-αI = IFN-αI (human, UniProt P01571 24-189); test: cell-based or functional assay
[28] = target: T14, Human IFN-ω T80E variant with a …; test: complex purified by size exclusion and crystallized, X-ray structure
[29] = target: T14, Human IFN-ω T80E variant with a …; test: complex crystallized, X-ray structure

- binding result (IFN-α1): no binding
- Kd (IFN-αC [1]): 1.67 nM
- Kd (IFN-α4a [2]): 5.39 nM
- Kd (IFN-αF [3]): 5.31 nM
- binding result (IFN-β): no binding
- binding result (IFN-αD): no binding
- Kd (IFN-αG [4]): 1.11 nM
- Kd (IFN-αJ1 [5]): 10.8 nM
- Kd (IFN-αK [6]): 0.245 nM
- Kd (IFN-αH2 [7]): 0.179 nM
- Kd (Chimp IFN-ω): 1.08 nM
- Kd (IFN-αWA [8]): 3.18 nM
- Kd (Cyno IFN-ω): 0.887 nM
- IC50 (nM), ISRE reporter gene assay (IFN-αC [9]): 53.9 nM
- IC50 (nM), ISRE reporter gene assay (IFN-α4a [10]): 32.8 nM
- IC50 (nM), ISRE reporter gene assay (IFN-αF [11]): 16 nM
- IC50 (nM), ISRE reporter gene assay (human IFN-ω [12]): 43.9 nM
- IC50 (nM), ISRE reporter gene assay (IFN-αG [13]): 12.9 nM
- IC50 (nM), ISRE reporter gene assay (IFN-αJ1 [14]): 35.7 nM
- IC50 (nM), ISRE reporter gene assay (IFN-αK [15]): 7.3 nM
- IC50 (nM), ISRE reporter gene assay (IFN-αH2 [16]): 9.6 nM
- IC50 (nM), ISRE reporter gene assay (IFN-αWA [17]): 74.2 nM
B1: IFWM371 (antibody, IgG1, V domains shown)
VH: EVQLVQSGAEVKKPGESLKISCKGSGYSFTSYWIGWVRQMPGKGLEWMGIIDPSDSDTRYSPSFQGQVTISADKSISTAYLQWSSLKASDTAMYYCARHPGLNWAPDFDYWGQGTLVTVSS
VL: not shown
notes: Fab cloned into IgG1/kappa background; also called IFWB351; parental mAb

- binding result [28]: binds
B4: Fab of IFWM3525 (Fab, V domains shown)
VH: B1 VH
VL: DIQMTQSPSSLSASVGDRVTITCRASQSIDNSYLNWYQQKPGKAPKLLIYGASSLQSGVPSRFSGSGSGTDFTLTISSLQPEDFATYYCQQGYDFPLTFGQGTKVEIK
notes: Fab for crystallography with C-terminal 6xHis tag; also called Fab IFWM3525

- binding result [29]: binds
B6: Fab IFWM3421 (Fab, V domains shown)
VH: B1 VH
VL: DIQMTQSPSSLSASVGDRVTITCRASQSIDGFLNWYQQKPGKAPKLLIYFASSLQSGVPSRFSGSGSGTDFTLTISSLQPEDFATYYCQQSYDLPITFGQGTKVEIK
notes: also called Fab3421; FabM3421

The next lines start with the binder.

B2: Fab IFWM371 (His-tagged, IgG1/kappa isotype) (Fab, V domains shown)
VH: B1 VH
VL: not shown
notes: His-tagged Fab expressed in HEK293 cells for crystallography; C-terminal 6xHis tag; also called FabM371; Fab of IFWM371
- binding result [18]: binds

B3: IFWM3522 (antibody, IgG1, V domains shown)
VH: B1 VH
VL: B6 VL with D30E, F32A, S91A, L94F, I96L
- IC50, ISRE reporter gene assay (IFN-αC [19]): 0.077 nM
- IC50, ISRE reporter gene assay (IFN-α4a [20]): 0.163 nM
- IC50, ISRE reporter gene assay (IFN-αF [21]): 0.225 nM
- IC50, ISRE reporter gene assay (human IFN-ω [22]): 0.053 nM
- IC50, ISRE reporter gene assay (IFN-αG [23]): 0.057 nM
- IC50, ISRE reporter gene assay (IFN-αJ1 [24]): 0.134 nM
- IC50, ISRE reporter gene assay (IFN-αK [25]): 0.029 nM
- IC50, ISRE reporter gene assay (IFN-αH2 [26]): 0.034 nM
- IC50, ISRE reporter gene assay (IFN-αWA [27]): 0.185 nM
- IC50, ISRE reporter gene assay (IFN-αI): 0.124 nM

B5: IFWM3525 (antibody, IgG1, V domains shown)
VH: B1 VH
VL: B4 VL
- IC50, ISRE reporter gene assay (IFN-αC [19]): 0.034 nM
- IC50, ISRE reporter gene assay (IFN-α4a [20]): 0.042 nM
- IC50, ISRE reporter gene assay (IFN-αF [21]): 0.082 nM
- IC50, ISRE reporter gene assay (human IFN-ω [22]): 0.019 nM
- IC50, ISRE reporter gene assay (IFN-αG [23]): 0.019 nM
- IC50, ISRE reporter gene assay (IFN-αJ1 [24]): 0.084 nM
- IC50, ISRE reporter gene assay (IFN-αK [25]): 0.007 nM
- IC50, ISRE reporter gene assay (IFN-αH2 [26]): 0.015 nM
- IC50, ISRE reporter gene assay (IFN-αWA [27]): 0.066 nM
- IC50, ISRE reporter gene assay (IFN-αI): 0.24 nM

Reference: patent publication US20150368338A1 (Janssen / Centocor, published 2015)
